In the nanobody polyreactivity screen of Harvey et al. (2022):

Assay: yeast display, Sf9 membrane polyspecificity reagent, FACS + sequencing; frameworks hold sequencing errors
How it was run: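 Nanobodies from a synthetic yeast display library (Saccharomyces cerevisiae BJ5465), induced 36–48 hours with galactose, were stained 1 hour at 4 °C with 10% biotinylated, detergent-solubilized Sf9 membrane reagent, enriched on streptavidin microbeads, then FACS-sorted. Anti-HA (expression) and streptavidin (reagent binding) fluorescence set low and high (top ~1%) gates. Polyreactivity labels come from the gate of origin. Genes were colony-PCR amplified, MiSeq 2 × 250 sequenced and filtered by CDR length.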

| Sequence | polyreactivity (PSR sort gate) |
| --- | --- |
| QVQLVESGGGLVQAGGILRLSCAATGTTFSYYPMGWYRQAPGKERELVAAITNGGSTYYADSVKGRFTISRDNAKNTVYLQMNSLKPEDTAVYYCAADVSYWPYARYQRYPRYDYWGQGTQVTVSS | low polyreactivity |
| QVQLVESGGGLVQAGGILRLSCASSGITFRQYAMEWYRQAPGKERELVATITSRGGSTYYADSVKGRFTISRDNAKNSVYLQMISLKPEDTADYYCAAKTPTKDRGSDFDYWGQCTQVTVSS | high polyreactivity |
| QVQLVESGGGLVQAGGILRLSCASSGSICYWYAMGWYRQAPGKERELVASITGGGSKKYAESLKGRFTISRDNANNSVYLQINSLKREDTAVYYCAARYGQPWGSRYYYWGQVTQVTVSS | high polyreactivity |
| QVQLVESGGGLVQAGGILRLSCDASGSTFVLYAMGWYRQAPGKERELVAAIRKSGGSTYYADSVKGRFTISRDNAKIYVYLQMNSLKPEDTAVYYCNATNYIYEYHYWGQGTQVTVSS | low polyreactivity |
| QVQLVESGGGLVQAGGILRLSFAASGRIFTHYAMAGYRPAPGKERELVAAIRYSGGRTYYADSVKGRFTLSRDNAKNTVYLQMNSRKPEDTAVYYCAAEGFGGSFRSFYTIYDYWGQGTLVTVSS | high polyreactivity |
| QVQLVESGGGLVQAGGILRLSSDTSRSIFSTNGMGWYRPAHGKERELVAAMSTGGRKYYADSVKVRFTISRDNAKNTVYLQMNSLIPEDSAVFYCAIDHWTTSYDEGYYWGQGTQVTVSW | low polyreactivity |
| QVQLVESGGGLVQAGGILRLSWAASGSTFTAYAMGWYRQAPGKERELVAAINTSGGNTYYADSVKGRFTISRDNAKNTVYFQMNSLKPEDTAVYYCAADYKARYSEKFDYWGQGTQVSVSS | low polyreactivity |
| QVQLVESGGGLVQAGGILRLTCAASGRIFIYYAMGWYRQAPGKERELVAAISWGGGRTYYADSVKGRFTISRDNAKNTVYLQMNSLKPEDTAVYNCAAGVYTGQHEYDYWGQGTQVTVSS | low polyreactivity |
| QVQLVESGGGLVQAGGILSLSSAAYGRISVFYTMGWYIQAPGKERELVAVIRTAGGRTKYADSVKGRFTISRDNAKNTVYLQMNSLKPEDTAVYYCADRVVRYGYKYYYWGQGTQVTVSS | low polyreactivity |
| QVQLVESGGGLVQAGGNLRLSCAASGFIFTRYAMGWYRPAPGKERELVAAISTSGDRTYYADSVKGRFTISRDNAKNTVYVQMHSLKPEDTAVYFCAVVRRRSVGRYVYWGQGTQVTVSS | high polyreactivity |
| QVQLVESGGGLVQAGGRHRLSCAASGRTFWGYGMGWYRQPPGKDRELVATISSGGSTYYEDSVKGRFTISRDNAMNTVYLQMNSLKPEDTAVYYCAARPPRSYWRYQSDYWGLGTQVTVSS | high polyreactivity |
| QVQLVESGGGLVQAGGRIRLSCAASGSTYGLNAMGWYRQDPGNEREMVAAITFISGSTNYADSVKGRFSISRDNAKNTVYLQMNSLKPEDTAVYYCAGDSVYYAGYDDDYWGLGTQVTVSS | low polyreactivity |
| QVQLVESGGGLVQAGGRLGLSCAASGRSFPWYTMGWYRQATGKERELVAAISSSGSTTYYADSVNGRFTISRDNAKITVYLQMNSLKPEDTAVYYCNKADPPEYDYWGQGTPVTVSS | high polyreactivity |
| QVQLVESGGGLVQAGGRLLLICAASGRIFIANAMGWYSKAPGKERELVATISRSGVSTNYADSVKVRFTISRDNAKNSVYLQMNSLKPEDTAVYYCADIRSGGQGQGYGYWGQVTQVTVSS | high polyreactivity |
| QVQLVESGGGLVQAGGRLPLSCAASGSTYSVNAMGWYRQAPGKERELVAAITRSGGSTYYADSVKGRFTISRDNAKNTVYLQMNSLNPEDTAVYYCAAEIYPLGEYWGQGTQVTVSS | low polyreactivity |
| QVQLVESGGGLVQAGGRLRFSCAASGSTIRRKAMGWSRQAPGKERELVARISYRGGSTYYADSVKGRFTSSRDNAKNTVYLQMNSLKPEATAVYYCAAPVYGVPEYDYWGQGPQVTVSS | low polyreactivity |
| QVQLVESGGGLVQAGGRLRISCAASGSIFEINAMGWYRQAPGKERELVAAITGSGGSTHYADSVKGRFPISRDNAKNTVYLQMNCLKPEDTAVYYCAAVPRYQYGYLGQGTQVTVSS | low polyreactivity |
| QVQLVESGGGLVQAGGRLRISSAASGRIFAYYAMGWYRQAPGKERELVAANTTNGGGTYYADSVKGRFTISRDNAKNTVSLQMNSLNPEDPAFYYCATQFEGPAGFNNWGQGTQVTVSS | low polyreactivity |
| QVQLVESGGGLVQAGGRLRLRCAASGFIFSIYTMGWYRQAPGKERELVAAISWSGGSKYYADSVKGRFTISRDNAKNTVYLQMNSLKPEDTAVYYCNRVQFSPVYRFREYDYWGQGTQVTVSS | high polyreactivity |
| QVQLVESGGGLVQAGGRLRLSCAASGFIFKYNAMGWSRQAPGKERELVAAISRGGRTYYADSVKGRFTISRDNAKNTVYLQMNSLKPEDTAVYYCAAVSHYPAGYDYWGQGTQVTVSS | high polyreactivity |
| QVQLVESGGGLVQAGGRLRLSCAASGFIVDDNTIGWYRQAPGKEREVFAAISYSAGSTYYADSVKGRFTISRDNAKNTVYFQLNSLKPEDTAVYYCAAQHYWVTCYLSSYDYWGQGTQVSVSS | low polyreactivity |
| QVQLVESGGGLVQAGGRLRLSCAASGFTFPWYTMGWYRQAPGKERELVAAISRSGGSTYYADSVKGRFTISRDNAKNTVYLQLNSLKPEDTAVYYCAAEQTRWPDITRYDYWGQGTQVTVSS | high polyreactivity |

| Sequence | polyreactivity (PSR sort gate) |
| --- | --- |
| QVQLVESGGGLVQAGGRLRLSCAASGFTFSRNAMGWYRQAPGKERELVAAITASTSRTYYADSVKGRFTISRDNAKNTVYLQMTSLKQEDSAVYYCNAGRPGRGPYGYWGQGTQVTVSS | high polyreactivity |
| QVQLVESGGGLVQAGGRLRLSCAASGFTFSYNTMGWYRQEPGKERELVAAITGDVSTNYADSVKGRFTISRDNAKNTVYLQMNSVKPEDTAVYYCAARPNFPGYEDLSVDYDYWGQGTQVTVSS | low polyreactivity |
| QVQLVESGGGLVQAGGRLRLSCAASGFTFWRNAMGWYRQAPGKERELVAAISRRGGNTYYADSVKGRFTISRDNAKNCVYLQMNSLKPEDTAVYYCAADYSYYYGYDYWGQGTQVTVSS | high polyreactivity |
| QVQLVESGGGLVQAGGRLRLSCAASGFTVSYYGMGWSRQAPGKERELVATISSSGSTNYADSVKGRFTISRDNAKNSVYLQMNSLKPEDTAVYYCATDYADAGYYTTFDYWGQGTQVTVSS | high polyreactivity |
| QVQLVESGGGLVQAGGRLRLSCAASGFTYPEYAMGWYRQAPGKEMELVAAIDSGDGSTYYADSVKGRFTISRDNAKNTVYLQMISLKPEDTAVYYCATDRYPHSATPGDYWGQGTQVTVSS | low polyreactivity |
| QVQLVESGGGLVQAGGRLRLSCAASGFYLNAMGWYRQAPGKDRELVATITSSATNTYYADSVKGRFTISRDNAKNTVYLQMNSLKPEDTAVYYCNARYTSHTLADGVYLYDYWGQGTQVTVSS | low polyreactivity |
| QVQLVESGGGLVQAGGRLRLSCAASGGIFESYAMGWYRQAPGKERELVATITGSGGNTYYADSVKGRFTISRDNAKNTVYLQMNSLKPEDTAVYYCAADTYITPHYLPLLYFLMEYWGQGTQVTVSS | low polyreactivity |
| QVQLVESGGGLVQAGGRLRLSCAASGGTFYLNAMGWYRQAPGKERELVAAISGSGTSTYYADSVKGRFTISRDNAKNTVYLQMNSLKPEDTAVYYCAADGTYFYIYLGDRFDYWGQGTQVTVSS | low polyreactivity |
| QVQLVESGGGLVQAGGRLRLSCAASGIFGYNALGWYRQAPGKERELVAAITSSGTSTYYADSVKGRFTISRDNAKNTVYLQMNSLKPEDTAVYYCAALHSGTWTGYGYWGQGTQVTVSS | low polyreactivity |
| QVQLVESGGGLVQAGGRLRLSCAASGIIFFWYVRGWYRQAPGKERELVAAINRGGITNYADSVKGRFTISRDNAKNTVYLQMNSLKTEDTAVYYCNKDWKTESWFNRYGGYGIEDDYWGQGTQVTVSS | high polyreactivity |
| QVQLVESGGGLVQAGGRLRLSCAASGIIFGTYAMGWYRPAPGQERELVAAINTGGTTYYADSVKGRFTISRDNAKNTVYLQMNSLKPEDTAVYYCAAEFTRYRYYYHKRPMDYWGQGTQVTVSS | low polyreactivity |
| QVQLVESGGGLVQAGGRLRLSCAASGIIFPRYMGWYRQAPGKERELVAAIRWSSDDTNYADSVKGRFTISRDNAKNTVYLQMNSLKPEDTAVYYCAAHSYYDRTIQFEFSARTYDYWGQGTQVTVSS | low polyreactivity |
| QVQLVESGGGLVQAGGRLRLSCAASGIIFQYNAMGWYRQAPGKEREFVAAISYGGTSTYYADSVKGRFTISRDNAKNTVYLQMNSLKPEDTAVYYCAADYQGYTPSDGRYYWGQGTQVTVSS | low polyreactivity |
| QVQLVESGGGLVQAGGRLRLSCAASGIIVGLYTMGWYRQARGKERELVAAISDSGGRTYYADSVKGRFTISRDNVKNTVYLQMNSLKPEDTAVYYCATRWPHYGGYYYWGQGTQVTVSS | high polyreactivity |
| QVQLVESGGGLVQAGGRLRLSCAASGINLGRYAMGWYRQAPGKERELVASISWSGGSTYYADSVKGRFTISRDNAKNTVYLQMNSLIPEDPAVYYCAATYWKSRYGVRGYPFGYWGQGTQVTVSS | high polyreactivity |
| QVQLVESGGGLVQAGGRLRLSCAASGITFQPNAMGWYRQAPGKERELVARITRGGGRTYYADSVKGRFTISRDNAKNTVYLLMHSLKPEDTAVYYCAADYSYIYGFDYWGQGTQVTVSS | low polyreactivity |
| QVQLVESGGGLVQAGGRLRLSCAASGITFRWYAMGWYRQAPGKERELVAAITTSGDSTYYADSVKGRFTISRDNAKNTVYLQMNSLKPEDTAVNYCAAKYQSLRTYGYGFDYWGQGTQVTVSS | high polyreactivity |
| QVQLVESGGGLVQAGGRLRLSCAASGITFSYYAMGRYRQAPGKERELVAAISSGGRTYYADSVKGRFTISRDNAKNTVYLQMNSLKQEDTAVYYCAASFLVTSREYDYWGQGTQVTVSS | high polyreactivity |
| QVQLVESGGGLVQAGGRLRLSCAASGITFWSNALGWYRQAPGKERELVAAMTSGGNTNYADSVKGRFTISRDNAKNTVYLQMNSLKPEDTAVYYCATKQLLRRRQGYYWVGSKHDYWGQGTQVTVSS | high polyreactivity |
| QVQLVESGGGLVQAGGRLRLSCAASGLIFTWNAMGWYRQAPGKERELVAAISTGGSTSYADSVKGRFTISRDNAMNTVYLQMNSMKPEDTAVYYCARDSSIWSHGSWYDYWGQGTQVTVSS | low polyreactivity |
| QVQLVESGGGLVQAGGRLRLSCAASGNTLRGYAMGWYRPAPGKERELVSAISYSSVNTYYADSVKGRFTISRDNAKNTVYLQMNSLKPEDTAVYYCAADYYYYRRTQYDLRGYPYYYWGQGTQVTVSS | low polyreactivity |
